{
  "source": "patent US20190175467A1",
  "about": "“COMPOSITION FOR THE TREATMENT OF ACNE” (ROTTAPHARM LTD., priority 2015, published 2019)",
  "molecules": {"B1": {"name": "Lactoferrin (protein, UniProt P02788 20-710, looked up)", "Lactotransferrin": "GRRRSVQWCAVSQPEATKCFQWQRNMRKVRGPPVSCIKRDSPIQCIQAIAENRADAVTLDGGFIYEAGLAPYKLRPVAAEVYGTERQPRTHYYAVAVVKKGGSFQLNELQGLKSCHTGLRRTAGWNVPIGTLRPFLNWTGPPEPIEAAVARFFSASCVPGADKGQFPNLCRLCAGTGENKCAFSSQEPYFSYSGAFKCLRDGAGDVAFIRESTVFEDLSDEAERDEYELLCPDNTRKPVDKFKDCHLARVPSHAVVARSVNGKEDAIWNLLRQAQEKFGKDKSPKFQLFGSPSGQKDLLFKDSAIGFSRVPPRIDSGLYLGSGYFTAIQNLRKSEEEVAARRARVVWCAVGEQELRKCNQWSGLSEGSVTCSSASTTEDCIALVLKGEADAMSLDGGYVYTAGKCGLVPVLAENYKSQQSSDPDPNCVDRPVEGYLAVAVVRRSDTSLTWNSVKGKKSCHTAVDRTAGWNIPMGLLFNQTGSCKFDEYFSQSCAPGSDPRSNLCALCIGDEQGENKCVPNSNERYYGYTGAFRCLAENAGDVAFVKDVTVLQNTDGNNNEAWAKDLKLADFALLCLDGKRKPVTEARSCHLAMAPNHAVVSRMDKVERLKQVLLHQQAKFGRNGSDCPDKFCLFQSETKNLLFNDNTECLARLHGKTTYEKYLGPQYVAGITNLKKCSTSPLLEACEFLRK"}},
  "key": {"[1]": {"tested_on": "Staphylococcus aureus ATCC 25923", "test": "Determination of MIC and MBC, Staphylococcus aureus", "type": "cell-based", "method": "(§1) A series of test tubes was prepared containing the culture broth inoculated with the test micro-organism and the substance to be tested was introduced at decreasing scalar concentrations. […] The test tubes in which the microbial population developed were then determined by observing visually the turbidity that is indicative of growth. Test tubes in which the substance is present at a sufficient concentration to inhibit growth remain clear. When the nature itself of the sample prevents visual reading or if it is wished to determine whether the lack of development is due to a microbiostatic or microbicidal action, transfers are made to appropriate agar media for confirmation. The concentration of sample at which growth of the micro-organisms is inhibited is considered to be the Minimum Inhibitory Concentration (MIC), while that at which viable micro-organisms are no longer present is considered to be the Minimum Bactericidal Concentration (MBC) The antibacterial activity of these substances against Staphylococcus aureus acnes ATCC 25923 and Staphylococcus epidermidis ATCC 12228 was tested according to the above-described method."}, "[2]": {"tested_on": "Staphylococcus epidermidis ATCC 12228", "test": "Determination of MIC and MBC, Staphylococcus epidermidis", "type": "cell-based", "method": "as §1"}},
  "data": [
    {"molecule": "B1", "values": [
      {"measurement": "MIC", "setting": "[1]", "value": ">20", "unit": "mg/mL"},
      {"measurement": "MIC", "setting": "[2]", "value": ">20", "unit": "mg/mL"}
    ]}
  ]
}
